According to US20250136720A1 (Boehringer Ingelheim, published 2025):
Residue numbers refer to the chain shown, from its start.

B1: FAP.84.B2 (Fc fusion)
VH: DVQLVESGGGVVRPGESLRLSCAASGFSFSSYAMNWVRQAPGKGLEWVSAISGSGGGTFYADSVKGRFTISRDNSKNTLYLQMNSLRAEDTAIYYCAKDPFGYGFFDSWGLGTLVTVSS
VL: EIVMTQSPATLSVSPGDRATLSCRASQTVGSKLAWYQQKPGQAPRLLIYAASSRATGIPDRFSGSGSGTDFTLTISSLEPEDFAVYYCQQYYNWPPAFGGGTKVEIK
notes: Tested as scFv-Fc; orientation, linker and Fc of this construct not specified
B2: FAP.84.B8 (Fc fusion)
VH: DVQLVESGGSVVRPGESLRLSCAASGFPFSSYPMTWVRQAPGEGLEWVSSIRGSGDRIHYADSVKGRFTISKDSSNNTLYLQMNSLRAEDTAVYYCATGWNFFDYWGLGTLVTVSS
VL: EIVLTQSPGTLSLSPGERATLSCRASQTVATYLAWYQQKPGQAPRLLIYAAISRATGIPDRFSGSGSGTDFTLTITRLEPEDSAVYYCQQYKDWPPLTFGGGTKVEIK
notes: as for B1
B3: FAP.84.A9 (Fc fusion)
VH: B2 VH with S10G, E16G, G53P, S54I, K72R
VL: B2 VL with S22T, S63I, T76N, S83F
notes: as for B1
B4: FAP-C3 parental (scFv)
scFv: EIVLTQSPGTLSLSPGERATLSCRASQSVGHYLAWYQQKPGQAPRLLIYDASNRAIDIPDRFSGSGSGTEFTLTISRLEPEDFAVYYCQQYYNNWPPLTFGGGTKVEIKGGGGSGGGGSGGGGSGGGGSDVQLVESGGGVVRPGESLTLSCAASGFTFSNYDMGWVRQAPGEGLEWVSGIRGRGGSTYYADSVKGRFTISRDSSKNTLYLQMNSLRAEDTAVYYCAKENNRHSFFEYWGLGTLVTVSS
notes: the format in the KD assay is told only as 'SCFV'; also called FAP-C3SCFVWT; FAP #4
B5: FAP-C3 VK1-VH14 (FAP #5) (scFv)
scFv: B4 scFv with N94D, N160S, D191E, D202E, N230E
notes: format in the KD assay not described; also called FAP-C3VK1VH14 (ND, SY, ES, ES, ER); FAP-C3-VK1-VH4
B6: FAP.84.C11 (Fc fusion)
VH: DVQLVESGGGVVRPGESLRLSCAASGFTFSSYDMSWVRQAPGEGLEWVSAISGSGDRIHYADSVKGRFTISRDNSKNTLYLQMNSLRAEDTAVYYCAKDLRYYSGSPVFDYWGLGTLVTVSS
VL: EIVLTQSPGTLSLSPGERAILSCRASQTVGSRLAWYQQKPGQAPRLLIYAASSRATGIPDRFSGSGSGTEFTLTISSLQSEDFAVYYCQQYYDWPPLTFGGGTKVEIK
notes: as for B1
B7: FAP.63.D7 (Fc fusion)
VH: DVQLVESGGGVVRPGESLRLSCAASGFTFSSYAMSWVRQTPGEGLEWVSFISSGGAYTHYTDSVKGRFTISRDNSKNTLYLQMNSLRAEDTAVYYCAKEKEIWNAFFDYWGLGTLVTVSS
VL: EIVLTQSPATLNLSPGDRATLTCRASQTVGSKLAWYQQTSGQAPRLLIYDASSRATGIPDRFSGSGSGTEFTLTISSLEPEDFAVYVCQQYYDWPPLTFGGGTKVEIK
notes: as for B1
B8: FAP.63.H3 (Fc fusion)
VH: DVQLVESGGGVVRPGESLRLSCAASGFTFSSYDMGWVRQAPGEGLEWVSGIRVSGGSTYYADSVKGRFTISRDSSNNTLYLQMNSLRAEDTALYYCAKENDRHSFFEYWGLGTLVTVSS
VL: EIVLTQSPGTLSLSPGERATLSCRASQSVGYYLAWYQQKPGQAPRLLIYDASDRATAIPDRFSGSGSGTEFTLTISRLEPEDFAVYYCQQYYNNWPPLTFGGGTKVEIK
notes: as for B1
B9: FAP.84.A11 (Fc fusion)
VH: DVQLVESGGGLVQPGGSLRLSCAASGFSMSNFAMTWVRQAPGEGLEWVSGIRGSGTTYYADSVKGRFTVSRDNSKNTLYLQMNSLRAEDTAIYYCAKTWGTEYFDYWGLGTLVTVSS
VL: EIVLTQSPGTLSLSPGERATLSCRASQPINNYLAWYQQKPGQAPRLLIFSASNRATGIPDRFSGSGSGTEFTLTISSLEPEDFAVYYCQQYYDWPPYTFGGGTKVEIK
notes: as for B1
B10: FAP.84.B7 (Fc fusion)
VH: DVQLVESGGGVVRPGESLRLSCAASGFIFRNYAMTWVRQAPGEGLEWVSTIRSSGSGRTDTYYADSVKGRFTISRDSSNNTLYLQMNSLRAEDTAVYYCAKSGTFWDTFFDYWGLGTLVTVSS
VL: EIVLTQNPGTLNLSPGERATLTCRASQSAGRNLAWYQQKPGQTPRLLIYDVNTRATGIPDRFSGSGSGTEFNLTISSLQNEDFAVYYCQQYNNWPPLTFGGGTKVEIK
notes: as for B1
B11: FAP-A11 parental (scFv)
scFv: EIVLTQSPGTLSLSPGERATLSCRASQPINNYLAWYQQKPGQAPRLLIFSASNRATGIPDRFSGSGSGTEFTLTISSLEPEDFAVYYCQQYYDWPPYTFGGGTKVEIKGGGGSGGGGSGGGGSGGGGSDVQLVESGGGLVQPGGSLRLSCAASGFSMSNFAMTWVRQAPGEGLEWVSGIRGSGTTYYADSVKGRFTVSRDNSKNTLYLQMNSLRAEDTAIYYCAKTWGTEYFDYWGLGTLVTVSS
notes: the format in the KD assay is told only as 'SCFV'; also called FAP-A11SCFV(WT); FAP #1
B12: FAP-A11 VK3-VH1 (scFv)
scFv: B11 scFv with N30R, N31S, D189E
notes: also called FAP-A11VK3VH1 (RS, NNN)
B13: FAP-A11 VK7-VH1 (FAP #3) (scFv)
scFv: B11 scFv with N30S, N31S, D189E
notes: format in the KD assay not described; also called FAP-A11VK7VH1 (SS, NNN)
B14: FAP-A11 VK3-VH13 (FAP #2) (scFv)
scFv: B11 scFv with N30R, N31S, D189E, N201Q, N204Q, N211Q
notes: format in the KD assay not described; also called FAP-A11VK3VH13 (RS, QQQ); A11 VK3/VH3

Experiments:
[1] = target: T1, Murine Fibroblast Activation Protein (FAP) on B16 cells (mouse, UniProt P97321 1-761); experiment: flow cytometry, scFv-Fc on B16-FAP cells
T1 construct: B16 cells transduced with murine FAP cDNA; also called B16-FAP

[2] = target: T2, Human Fibroblast Activation Protein (FAP) on HT1080 cells (human, UniProt Q12884 1-760); experiment: flow cytometry, scFv-Fc on HT1080-FAP cells
T2 construct: HT1080 cells transduced with human FAP cDNA; also called HT1080-FAP; FAP+ HT1080

human FAP protein = human FAP protein (human, UniProt Q12884 26-760, limits assumed); experiment: method not stated
mouse FAP protein = target: T3, mouse FAP protein (mouse, UniProt P97321 1-761); experiment: method not stated
T3 construct: also called murine FAP
T3 sequence (P97321 other isoform, or with tags, fused parts or gaps limits assumed, form in doubt): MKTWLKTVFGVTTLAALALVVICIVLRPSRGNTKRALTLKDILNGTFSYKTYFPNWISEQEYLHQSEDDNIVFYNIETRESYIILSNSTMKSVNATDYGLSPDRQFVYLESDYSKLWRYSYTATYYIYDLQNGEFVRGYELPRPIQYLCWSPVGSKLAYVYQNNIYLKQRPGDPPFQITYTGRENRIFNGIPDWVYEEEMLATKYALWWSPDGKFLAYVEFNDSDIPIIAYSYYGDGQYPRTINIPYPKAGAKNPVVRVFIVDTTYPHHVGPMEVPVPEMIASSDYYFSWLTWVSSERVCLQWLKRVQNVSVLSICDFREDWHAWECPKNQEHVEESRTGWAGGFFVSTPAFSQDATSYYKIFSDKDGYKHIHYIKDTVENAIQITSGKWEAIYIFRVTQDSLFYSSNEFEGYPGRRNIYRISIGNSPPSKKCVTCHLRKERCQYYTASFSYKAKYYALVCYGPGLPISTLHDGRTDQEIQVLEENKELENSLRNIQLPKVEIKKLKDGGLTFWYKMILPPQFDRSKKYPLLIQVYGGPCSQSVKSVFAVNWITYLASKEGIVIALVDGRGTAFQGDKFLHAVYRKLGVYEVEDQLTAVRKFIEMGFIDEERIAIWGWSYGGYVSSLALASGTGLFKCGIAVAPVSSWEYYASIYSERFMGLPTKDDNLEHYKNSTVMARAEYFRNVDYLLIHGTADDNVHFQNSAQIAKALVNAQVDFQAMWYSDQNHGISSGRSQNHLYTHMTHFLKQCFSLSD

T1 sequence (P97321 other isoform, or with tags, fused parts or gaps): as the sequence (P97321 other isoform, or with tags, fused parts or gaps limits assumed, form in doubt) above

| Binder | MFI [1] | MFI [2] | Kd (human FAP protein) | Kd (mouse FAP protein) |
| --- | --- | --- | --- | --- |
| B1 | 2260 MFI | 17300 MFI | – | – |
| B2 | 1490 MFI | 24300 MFI | – | – |
| B3 | 1300 MFI | 25400 MFI | – | – |
| B4 | – | – | 0.036 nM | 33 nM |
| B5 | – | – | 0.024 nM | 4.6 nM |
| B6 | 1430 MFI | 27000 MFI | – | – |
| B7 | 3360 MFI | 49100 MFI | – | – |
| B8 | 2830 MFI | 75000 MFI | – | – |
| B9 | 1410 MFI | 27300 MFI | – | – |
| B10 | 1610 MFI | 24000 MFI | – | – |
| B11 | – | – | 1.04 nM | < 0.02 nM |
| B12 | – | – | 0.199 nM | < 0.02 nM |
| B13 | – | – | 1.5 nM | < 0.02 nM |
| B14 | – | – | 0.538 nM | < 0.02 nM |
